Tested on: SARS-CoV-1, MERS-CoV and SARS-CoV-2 proteins in HEK293T cells
Parameters: species or system human

B1: M-Q7RTS9 (protein, UniProt Q7RTS9 2-669, looked up)
Dymeclin: GSNSSRIGDLPKNEYLKKLSGTESISENDPFWNQLLSFSFPAPTSSSELKLLEEATISVCRSLVENNPRTGNLGALIKVFLSRTKELKLSAECQNHIFIWQTHNALFIICCLLKVFICQMSEEELQLHFTYEEKSPGNYSSDSEDLLEELLCCLMQLITDIPLLDITYEISVEAISTMVVFLSCQLFHKEVLRQSISHKYLMRGPCLPYTSKLVKTLLYNFIRQEKPPPPGAHVFPQQSDGGGLLYGLASGVATGLWTVFTLGGVGSKAAASPELSSPLANQSLLLLLVLANLTDASDAPNPYRQAIMSFKNTQDSSPFPSSIPHAFQINFNSLYTALCEQQTSDQATLLLYTLLHQNSNIRTYMLARTDMENLVLPILEILYHVEERNSHHVYMALIILLILTEDDGFNRSIHEVILKNITWYSERVLTEISLGSLLILVVIRTIQYNMTRTRDKYLHTNCLAALANMSAQFRSLHQYAAQRIISLFSLLSKKHNKVLEQATQSLRGSLSSNDVPLPDYAQDLNVIEEVIRMMLEIINSCLTNSLHHNPNLVYALLYKRDLFEQFRTHPSFQDIMQNIDLVISFFSSRLLQAGAELSVERVLEIIKQGVVALPKDRLKKFPELKFKYVEEEQPEEFFIPYVWSLVYNSAVGLYWNPQDIQLFTMDSD
modifications: interactor of viral M protein
**Q.** With B1 as the molecule, how does the MIST_MERS read?
**A.** 0

**Q.** What about the MIST_SARS1 of the same molecule?
**A.** 0.9893

**Q.** What about the MIST_SARS2 of the same molecule?
**A.** 0

**Q.** What about the Saint_MERS of the same molecule?
**A.** 0

**Q.** And the Saint_SARS1?
**A.** 0.97

**Q.** And the Saint_SARS2?
**A.** 0

B2: M-Q8NEW0 (protein, UniProt Q8NEW0 1-376, looked up)
Zinc transporter 7: MLPLSIKDDEYKPPKFNLFGKISGWFRSILSDKTSRNLFFFLCLNLSFAFVELLYGIWSNCLGLISDSFHMFFDSTAILAGLAASVISKWRDNDAFSYGYVRAEVLAGFVNGLFLIFTAFFIFSEGVERALAPPDVHHERLLLVSILGFVVNLIGIFVFKHGGHGHSHGSGHGHSHSLFNGALDQAHGHVDHCHSHEVKHGAAHSHDHAHGHGHFHSHDGPSLKETTGPSRQILQGVFLHILADTLGSIGVIASAIMMQNFGLMIADPICSILIAILIVVSVIPLLRESVGILMQRTPPLLENSLPQCYQRVQQLQGVYSLQEQHFWTLCSDVYVGTLKLIVAPDADARWILSQTHNIFTQAGVRQLYVQIDFAAM
modifications: interaction partner of viral M protein
**Q.** B2 was tested. Which MIST_MERS did it give?
**A.** 0.5834

**Q.** And the MIST_SARS1?
**A.** 0.6222

**Q.** What about the MIST_SARS2 of the same molecule?
**A.** 0.767

**Q.** What about the Saint_MERS of the same molecule?
**A.** 0.64

**Q.** What about the Saint_SARS1 of the same molecule?
**A.** 0.97

**Q.** What about the Saint_SARS2 of the same molecule?
**A.** 1

B3: M-Q8TCJ2 (protein, UniProt Q8TCJ2 2-826, looked up)
Dolichyl-diphosphooligosacchar …: AEPSAPESKHKSSLNSSPWSGLMALGNSRHGHHGPGAQCAHKAAGGAAPPKPAPAGLSGGLSQPAGWQSLLSFTILFLAWLAGFSSRLFAVIRFESIIHEFDPWFNYRSTHHLASHGFYEFLNWFDERAWYPLGRIVGGTVYPGLMITAGLIHWILNTLNITVHIRDVCVFLAPTFSGLTSISTFLLTRELWNQGAGLLAACFIAIVPGYISRSVAGSFDNEGIAIFALQFTYYLWVKSVKTGSVFWTMCCCLSYFYMVSAWGGYVFIINLIPLHVFVLLLMQRYSKRVYIAYSTFYIVGLILSMQIPFVGFQPIRTSEHMAAAGVFALLQAYAFLQYLRDRLTKQEFQTLFFLGVSLAAGAVFLSVIYLTYTGYIAPWSGRFYSLWDTGYAKIHIPIIASVSEHQPTTWVSFFFDLHILVCTFPAGLWFCIKNINDERVFVALYAISAVYFAGVMVRLMLTLTPVVCMLSAIAFSNVFEHYLGDDMKRENPPVEDSSDEDDKRNQGNLYDKAGKVRKHATEQEKTEEGLGPNIKSIVTMLMLMLLMMFAVHCTWVTSNAYSSPSVVLASYNHDGTRNILDDFREAYFWLRQNTDEHARVMSWWDYGYQIAGMANRTTLVDNNTWNNSHIALVGKAMSSNETAAYKIMRTLDVDYVLVIFGGVIGYSGDDINKFLWMVRIAEGEHPKDIRESDYFTPQGEFRVDKAGSPTLLNCLMYKMSYYRFGEMQLDFRTPPGFDRTRNAEIGNKDIKFKHLEEAFTSEHWLVRIYKVKAPDNRETLDHKPRVTNIFPKQKYLSKKTTKRKRGYIKNKLVFKKGKKISKKTV
**Q.** How did the MIST_MERS turn out when B3 was run?
**A.** 0

**Q.** What about the MIST_SARS1 of the same molecule?
**A.** 0.991

**Q.** What about the MIST_SARS2 of the same molecule?
**A.** 0.01779

**Q.** And the Saint_MERS?
**A.** 0

**Q.** What about the Saint_SARS1 of the same molecule?
**A.** 1

**Q.** And the Saint_SARS2?
**A.** 0

B4: M-Q96AA3 (protein, UniProt Q96AA3 1-541, looked up)
Man(5)GlcNAc(2)-PP-dolichol …: MGSQEVLGHAARLASSGLLLQVLFRLITFVLNAFILRFLSKEIVGVVNVRLTLLYSTTLFLAREAFRRACLSGGTQRDWSQTLNLLWLTVPLGVFWSLFLGWIWLQLLEVPDPNVVPHYATGVVLFGLSAVVELLGEPFWVLAQAHMFVKLKVIAESLSVILKSVLTAFLVLWLPHWGLYIFSLAQLFYTTVLVLCYVIYFTKLLGSPESTKLQTLPVSRITDLLPNITRNGAFINWKEAKLTWSFFKQSFLKQILTEGERYVMTFLNVLNFGDQGVYDIVNNLGSLVARLIFQPIEESFYIFFAKVLERGKDATLQKQEDVAVAAAVLESLLKLALLAGLTITVFGFAYSQLALDIYGGTMLSSGSGPVLLRSYCLYVLLLAINGVTECFTFAAMSKEEVDRYNFVMLALSSSFLVLSYLLTRWCGSVGFILANCFNMGIRITQSLCFIHRYYRRSPHRPLAGLHLSPVLLGTFALSGGVTAVSEVFLCCEQGWPARLAHIAVGAFCLGATLGTAFLTETKLIHFLRTQLGVPRRTDKMT
modifications: interaction partner of viral M protein
**Q.** Which results are given for B4?
**A.** MIST_MERS: 0; MIST_SARS1: 0.809; MIST_SARS2: 0.5513; Saint_MERS: 0; Saint_SARS1: 0.95; Saint_SARS2: 0.98

B5: M-Q86UL3 (protein, UniProt Q86UL3 38-456, looked up)
Glycerol-3-phosphate …: VSFGIRKLYMKSLLKIFAWATLRMERGAKEKNHQLYKPYTNGIIAKDPTSLEEEIKEIRRSGSSKALDNTPEFELSDIFYFCRKGMETIMDDEVTKRFSAEELESWNLLSRTNYNFQYISLRLTVLWGLGVLIRYCFLLPLRIALAFTGISLLVVGTTVVGYLPNGRFKEFMSKHVHLMCYRICVRALTAIITYHDRENRPRNGGICVANHTSPIDVIILASDGYYAMVGQVHGGLMGVIQRAMVKACPHVWFERSEVKDRHLVAKRLTEHVQDKSKLPILIFPEGTCINNTSVMMFKKGSFEIGATVYPVAIKYDPQFGDAFWNSSKYGMVTYLLRMMTSWAIVCSVWYLPPMTREADEDAVQFANRVKSAIARQGGLVDLLWDGGLKREKVKDTFKEEQQKLYSKMIVGNHKDRSRS
modifications: interactor of M protein
**Q.** Which MIST_MERS does the source give for B5 here?
**A.** 0.2998

**Q.** And the MIST_SARS1?
**A.** 0.8496

**Q.** What about the MIST_SARS2 of the same molecule?
**A.** 0.485

**Q.** What about the Saint_MERS of the same molecule?
**A.** 0.31

**Q.** What about the Saint_SARS1 of the same molecule?
**A.** 1

**Q.** And the Saint_SARS2?
**A.** 0.96

B6: M-Q8WUD6 (protein, UniProt Q8WUD6 2-406, looked up)
Cholinephosphotransferase 1: AAGAGAGSAPRWLRALSEPLSAAQLRRLEEHRYSAAGVSLLEPPLQLYWTWLLQWIPLWMAPNSITLLGLAVNVVTTLVLISYCPTATEEAPYWTYLLCALGLFIYQSLDAIDGKQARRTNSCSPLGELFDHGCDSLSTVFMAVGASIAARLGTYPDWFFFCSFIGMFVFYCAHWQTYVSGMLRFGKVDVTEIQIALVIVFVLSAFGGATMWDYTIPILEIKLKILPVLGFLGGVIFSCSNYFHVILHGGVGKNGSTIAGTSVLSPGLHIGLIIILAIMIYKKSATDVFEKHPCLYILMFGCVFAKVSQKLVVAHMTKSELYLQDTVFLGPGLLFLDQYFNNFIDEYVVLWMAMVISSFDMVIYFSALCLQISRHLHLNIFKTACHQAPEQVQVLSSKSHQNNMD
**Q.** With B6 as the molecule, how does the MIST_MERS read?
**A.** 0

**Q.** What about the MIST_SARS1 of the same molecule?
**A.** 0.8979

**Q.** And the MIST_SARS2?
**A.** 0.636

**Q.** And the Saint_MERS?
**A.** 0

**Q.** And the Saint_SARS1?
**A.** 0.98

**Q.** What about the Saint_SARS2 of the same molecule?
**A.** 0.65

B7: M-Q8TBF5 (protein, UniProt Q8TBF5 22-258, looked up)
GPI …: LTRGPAAAFTAARSDAGIRAMCSEIILRQEVLKDGFHRDLLIKVKFGESIEDLHTCRLLIKQDIPAGLYVDPYELASLRERNITEAVMVSENFDIEAPNYLSKESEVLIYARRDSQCIDCFQAFLPVHCRYHRPHSEDGEASIVVNNPDLLMFCDQEFPILKCWAHSEVAAPCALENEDICQWNKMKYKSVYKNVILQVPVGLTVHTSLVCSVTLLITILCSTLILVAVFKYGHFSL
modifications: prey of SARS-CoV-2 M
**Q.** What does the source list for B7?
**A.** MIST_MERS: 0; MIST_SARS1: 0.9901; MIST_SARS2: 0.4273; Saint_MERS: 0; Saint_SARS1: 0.99; Saint_SARS2: 0.33

B8: M-Q8NDZ4 (protein, UniProt Q8NDZ4 36-430, looked up)
Divergent protein kinase …: LASWQRNELTDRRFLQLNKCPACFGTSWCRRFLNGQVVFEAWGRLRLLDFLNVKNVYFAQYGEPREGGRRRVVLKRLGSQRELAQLDQSICKRATGRPRCDLLQAMPRTEFARLNGDVRLLTPEAVEGWSDLVHCPSQRLLDRLVRRYAETKDSGSFLLRNLKDSERMQLLLTLAFNPEPLVLQSFPSDEGWPFAKYLGACGRMVAVNYVGEELWSYFNAPWEKRVDLAWQLMEIAEQLTNNDFEFALYLLDVSFDNFAVGPRDGKVIIVDAENVLVADKRLIRQNKPENWDVWYESKFDDCDKEACLSFSKEILCARATVDHNYYAVCQNLLSRHATWRGTSGGLLHDPPSEIAKDGRLEALLDECANPKKRYGRFQAAKELREYLAQLSNNVR
**Q.** Which results are given for B8?
**A.** MIST_MERS: 0.7477; MIST_SARS1: 0; MIST_SARS2: 0; Saint_MERS: 1; Saint_SARS1: 0; Saint_SARS2: 0

B9: M-Q6PJG6 (protein, UniProt Q6PJG6 1-821, looked up)
Integrator complex assembly …: MDPECAQLLPALCAVLVDPRQPVADDTCLEKLLDWFKTVTEGESSVVLLQEHPCLVELLSHVLKVQDLSSGVLSFSLRLAGTFAAQENCFQYLQQGELLPGLFGEPGPLGRATWAVPTVRSGWIQGLRSLAQHPSALRFLADHGAVDTIFSLQGDSSLFVASAASQLLVHVLALSMRGGAEGQPCLPGGDWPACAQKIMDHVEESLCSAATPKVTQALNVLTTTFGRCQSPWTEALWVRLSPRVACLLERDPIPAAHSFVDLLLCVARSPVFSSSDGSLWETVARALSCLGPTHMGPLALGILKLEHCPQALRTQAFQVLLQPLACVLKATVQAPGPPGLLDGTADDATTVDTLLASKSSCAGLLCRTLAHLEELQPLPQRPSPWPQASLLGATVTVLRLCDGSAAPASSVGGHLCGTLAGCVRVQRAALDFLGTLSQGTGPQELVTQALAVLLECLESPGSSPTVLKKAFQATLRWLLSSPKTPGCSDLGPLIPQFLRELFPVLQKRLCHPCWEVRDSALEFLTQLSRHWGGQADFRCALLASEVPQLALQLLQDPESYVRASAVTAMGQLSSQGLHAPTSPEHAEARQSLFLELLHILSVDSEGFPRRAVMQVFTEWLRDGHADAAQDTEQFVATVLQAASRDLDWEVRAQGLELALVFLGQTLGPPRTHCPYAVALPEVAPAQPLTEALRALCHVGLFDFAFCALFDCDRPVAQKSCDLLLFLRDKIASYSSLREARGSPNTASAEATLPRWRAGEQAQPPGDQEPEAVLAMLRSLDLEGLRSTLAESSDHVEKSPQSLLQDMLATGGFLQGDEADCY
**Q.** For B9, which MIST_MERS is on record?
**A.** 0

**Q.** What about the MIST_SARS1 of the same molecule?
**A.** 0.9911

**Q.** And the MIST_SARS2?
**A.** 0

**Q.** What about the Saint_MERS of the same molecule?
**A.** 0

**Q.** What about the Saint_SARS1 of the same molecule?
**A.** 1

**Q.** And the Saint_SARS2?
**A.** 0

From patent publication US20230395193A1 (priority 2020, published 2023)
